Molecular target: the molecule itself
Experiment: cryo-EM structure

B1: Sth enolase, untagged, expressed in E. coli (enzyme, Streptococcus thermophilus DGCC7710)
chain: MSIITDVYAREVLDSRGNPTLEVEVYTESGAFGRGMVPSGASTGEHEAVELRDGDKARYGGLGTQKAVDNVNNVIAEHIIGFDVRDQQGIDRAMIALDGTPNKGKLGANAILGVSIAVARAAADYLEVPLYSYLGGFNTKVLPTPMMNIINGGSHSDAPIAFQEFMIVPAGAPTFKEALRWGAEIFHALKKILKERGLETAVGDEGGFAPRFNGTEDGVETIIKAIEAAGYVPGKDVFIGLDCASSEFYDAERKVYDYTKFEGEGAAVRTAAEQIDYLEELVNKYPIITIEDGMDENDWDGWKALTERLGGKVQLVGDDFFVTNTAYLEKGIAEHAANSILIKVNQIGTLTETFDAIEMAKEAGYTAVVSHRSGETEDSTIADIAVATNAGQIKTGSLSRTDRIAKYNQLLRIEDQLGEVAEYRGLKSFYNLKK
stoichiometry N: 8
